The results in this text go back to patent publication US20210032299A1 (Eli Lilly, published 2021).

T1: human glucose-dependent insulinotropic polypeptide (GIP) receptor (human, UniProt P48546 22-466)
T1 construct: whole, on cells; Assayed as crude membranes of stably transfected CHO cells; also called hGIPR; human GIP receptor
T1 sequence (looked up): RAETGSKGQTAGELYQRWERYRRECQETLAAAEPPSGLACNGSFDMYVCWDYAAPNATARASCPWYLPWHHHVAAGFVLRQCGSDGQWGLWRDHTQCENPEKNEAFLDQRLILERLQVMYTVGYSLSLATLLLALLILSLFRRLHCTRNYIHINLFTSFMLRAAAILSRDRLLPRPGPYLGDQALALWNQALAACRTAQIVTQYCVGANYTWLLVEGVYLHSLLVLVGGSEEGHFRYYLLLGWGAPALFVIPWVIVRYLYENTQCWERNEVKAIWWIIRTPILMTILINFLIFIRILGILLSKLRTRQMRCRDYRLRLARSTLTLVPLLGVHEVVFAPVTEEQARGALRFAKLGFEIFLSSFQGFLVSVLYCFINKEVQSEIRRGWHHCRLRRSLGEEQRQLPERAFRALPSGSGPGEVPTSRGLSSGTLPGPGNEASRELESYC

B1: Example 77 (peptide)
peptide: YXEGTXISDYSIXLDXKHQXDFVEXLLETGPSSGAPPPS
modifications: Aib2; Iva6; αMeL13; Orn16; K17((2-[2-(2-Amino-ethoxy)-ethoxy]-acetyl)2-(γ-Glu)-CO-(CH2)18-CO2H); Aib20; 4-Pal25; C-terminal amide
B2: Example 92 (peptide)
peptide: Y[Aib]EGTFISDYSI[αMeL]LDKIHQ[Aib]DFVEYK([AEEA-AEEA-γGlu-C20 diacid])LEQGPSSGAPPPS-NH2
modifications: N-terminus assumed
SMILES: CC[C@H](C)[C@H](NC(=O)[C@H](CCCCN)NC(=O)[C@H](CC(=O)O)NC(=O)[C@H](CC(C)C)NC(=O)[C@](C)(CC(C)C)NC(=O)[C@@H](NC(=O)[C@H](CO)NC(=O)[C@H](Cc1ccc(O)cc1)NC(=O)[C@H](CC(=O)O)NC(=O)[C@H](CO)NC(=O)[C@@H](NC(=O)[C@H](Cc1ccccc1)NC(=O)[C@@H](NC(=O)CNC(=O)[C@H](CCC(=O)O)NC(=O)C(C)(C)NC(=O)[C@@H](N)Cc1ccc(O)cc1)[C@@H](C)O)[C@@H](C)CC)[C@@H](C)CC)C(=O)N[C@@H](Cc1c[nH]cn1)C(=O)N[C@@H](CCC(N)=O)C(=O)NC(C)(C)C(=O)N[C@@H](CC(=O)O)C(=O)N[C@@H](Cc1ccccc1)C(=O)N[C@H](C(=O)N[C@@H](CCC(=O)O)C(=O)N[C@@H](Cc1ccc(O)cc1)C(=O)N[C@@H](CCCCNC(=O)COCCOCCNC(=O)COCCOCCNC(=O)CC[C@H](NC(=O)CCCCCCCCCCCCCCCCCCC(=O)O)C(=O)O)C(=O)N[C@@H](CC(C)C)C(=O)N[C@@H](CCC(=O)O)C(=O)N[C@@H](CCC(N)=O)C(=O)NCC(=O)N1CCC[C@H]1C(=O)N[C@@H](CO)C(=O)N[C@@H](CO)C(=O)NCC(=O)N[C@@H](C)C(=O)N1CCC[C@H]1C(=O)N1CCC[C@H]1C(=O)N1CCC[C@H]1C(=O)N[C@@H](CO)C(N)=O)C(C)C
B3: Example 80 (peptide)
peptide: Y[Aib]EGTFISDYSI[αMeL]LD[Orn]K([AEEA-AEEA-γGlu-C20 diacid])HQ[Aib]DFVE[4Pal]LLETGPSSGAPPPS-NH2
modifications: N-terminus assumed
SMILES: CC[C@H](C)[C@H](NC(=O)[C@H](Cc1ccccc1)NC(=O)[C@@H](NC(=O)CNC(=O)[C@H](CCC(=O)O)NC(=O)C(C)(C)NC(=O)[C@@H](N)Cc1ccc(O)cc1)[C@@H](C)O)C(=O)N[C@@H](CO)C(=O)N[C@@H](CC(=O)O)C(=O)N[C@@H](Cc1ccc(O)cc1)C(=O)N[C@@H](CO)C(=O)N[C@H](C(=O)N[C@@](C)(CC(C)C)C(=O)N[C@@H](CC(C)C)C(=O)N[C@@H](CC(=O)O)C(=O)N[C@@H](CCCN)C(=O)N[C@@H](CCCCNC(=O)COCCOCCNC(=O)COCCOCCNC(=O)CC[C@H](NC(=O)CCCCCCCCCCCCCCCCCCC(=O)O)C(=O)O)C(=O)N[C@@H](Cc1c[nH]cn1)C(=O)N[C@@H](CCC(N)=O)C(=O)NC(C)(C)C(=O)N[C@@H](CC(=O)O)C(=O)N[C@@H](Cc1ccccc1)C(=O)N[C@H](C(=O)N[C@@H](CCC(=O)O)C(=O)N[C@@H](Cc1ccncc1)C(=O)N[C@@H](CC(C)C)C(=O)N[C@@H](CC(C)C)C(=O)N[C@@H](CCC(=O)O)C(=O)N[C@H](C(=O)NCC(=O)N1CCC[C@H]1C(=O)N[C@@H](CO)C(=O)N[C@@H](CO)C(=O)NCC(=O)N[C@@H](C)C(=O)N1CCC[C@H]1C(=O)N1CCC[C@H]1C(=O)N1CCC[C@H]1C(=O)N[C@@H](CO)C(N)=O)[C@@H](C)O)C(C)C)[C@@H](C)CC
B4: Example 9 (peptide)
peptide: YXEGTFISDYSILLDKKHQXDFVNWLLAQGPSSGAPPPS
modifications: D-Ala2; K17((2-[2-(2-Amino-ethoxy)-ethoxy]-acetyl)2-(γ-Glu)-CO-(CH2)18-CO2H); Aib20; C-terminal amide
B5: Example 31 (peptide)
peptide: Y[Aib]EGTFISDYSILLDKK([AEEA-AEEA-γGlu-C18 diacid])HQ[Aib]DFVNYLLAAGPSSGAPPPS-NH2
modifications: N-terminus assumed
SMILES: CC[C@H](C)[C@H](NC(=O)[C@H](CO)NC(=O)[C@H](Cc1ccc(O)cc1)NC(=O)[C@H](CC(=O)O)NC(=O)[C@H](CO)NC(=O)[C@@H](NC(=O)[C@H](Cc1ccccc1)NC(=O)[C@@H](NC(=O)CNC(=O)[C@H](CCC(=O)O)NC(=O)C(C)(C)NC(=O)[C@@H](N)Cc1ccc(O)cc1)[C@@H](C)O)[C@@H](C)CC)C(=O)N[C@@H](CC(C)C)C(=O)N[C@@H](CC(C)C)C(=O)N[C@@H](CC(=O)O)C(=O)N[C@@H](CCCCN)C(=O)N[C@@H](CCCCNC(=O)COCCOCCNC(=O)COCCOCCNC(=O)CC[C@H](NC(=O)CCCCCCCCCCCCCCCCC(=O)O)C(=O)O)C(=O)N[C@@H](Cc1c[nH]cn1)C(=O)N[C@@H](CCC(N)=O)C(=O)NC(C)(C)C(=O)N[C@@H](CC(=O)O)C(=O)N[C@@H](Cc1ccccc1)C(=O)N[C@H](C(=O)N[C@@H](CC(N)=O)C(=O)N[C@@H](Cc1ccc(O)cc1)C(=O)N[C@@H](CC(C)C)C(=O)N[C@@H](CC(C)C)C(=O)N[C@@H](C)C(=O)N[C@@H](C)C(=O)NCC(=O)N1CCC[C@H]1C(=O)N[C@@H](CO)C(=O)N[C@@H](CO)C(=O)NCC(=O)N[C@@H](C)C(=O)N1CCC[C@H]1C(=O)N1CCC[C@H]1C(=O)N1CCC[C@H]1C(=O)N[C@@H](CO)C(N)=O)C(C)C
B6: Example 32 (peptide)
peptide: Y[dA]EGTLISDYSILLDKK([AEEA-AEEA-γGlu-C18 diacid])AQ[Aib]DFVNWLLAQGPSSGAPPPS-NH2
modifications: N-terminus assumed
SMILES: CC[C@H](C)[C@H](NC(=O)[C@H](CO)NC(=O)[C@H](Cc1ccc(O)cc1)NC(=O)[C@H](CC(=O)O)NC(=O)[C@H](CO)NC(=O)[C@@H](NC(=O)[C@H](CC(C)C)NC(=O)[C@@H](NC(=O)CNC(=O)[C@H](CCC(=O)O)NC(=O)[C@@H](C)NC(=O)[C@@H](N)Cc1ccc(O)cc1)[C@@H](C)O)[C@@H](C)CC)C(=O)N[C@@H](CC(C)C)C(=O)N[C@@H](CC(C)C)C(=O)N[C@@H](CC(=O)O)C(=O)N[C@@H](CCCCN)C(=O)N[C@@H](CCCCNC(=O)COCCOCCNC(=O)COCCOCCNC(=O)CC[C@H](NC(=O)CCCCCCCCCCCCCCCCC(=O)O)C(=O)O)C(=O)N[C@@H](C)C(=O)N[C@@H](CCC(N)=O)C(=O)NC(C)(C)C(=O)N[C@@H](CC(=O)O)C(=O)N[C@@H](Cc1ccccc1)C(=O)N[C@H](C(=O)N[C@@H](CC(N)=O)C(=O)N[C@@H](Cc1c[nH]c2ccccc12)C(=O)N[C@@H](CC(C)C)C(=O)N[C@@H](CC(C)C)C(=O)N[C@@H](C)C(=O)N[C@@H](CCC(N)=O)C(=O)NCC(=O)N1CCC[C@H]1C(=O)N[C@@H](CO)C(=O)N[C@@H](CO)C(=O)NCC(=O)N[C@@H](C)C(=O)N1CCC[C@H]1C(=O)N1CCC[C@H]1C(=O)N1CCC[C@H]1C(=O)N[C@@H](CO)C(N)=O)C(C)C
B7: Example 24 (peptide)
peptide: Y[Aib]EGTFISDYSI[Aib]LDKK([AEEA-AEEA-γGlu-C18 diacid])HQ[Aib]DFVE[4Pal]LLAGGPSSGAPPPS-NH2
modifications: N-terminus assumed
SMILES: CC[C@H](C)[C@H](NC(=O)[C@H](Cc1ccccc1)NC(=O)[C@@H](NC(=O)CNC(=O)[C@H](CCC(=O)O)NC(=O)C(C)(C)NC(=O)[C@@H](N)Cc1ccc(O)cc1)[C@@H](C)O)C(=O)N[C@@H](CO)C(=O)N[C@@H](CC(=O)O)C(=O)N[C@@H](Cc1ccc(O)cc1)C(=O)N[C@@H](CO)C(=O)N[C@H](C(=O)NC(C)(C)C(=O)N[C@@H](CC(C)C)C(=O)N[C@@H](CC(=O)O)C(=O)N[C@@H](CCCCN)C(=O)N[C@@H](CCCCNC(=O)COCCOCCNC(=O)COCCOCCNC(=O)CC[C@H](NC(=O)CCCCCCCCCCCCCCCCC(=O)O)C(=O)O)C(=O)N[C@@H](Cc1c[nH]cn1)C(=O)N[C@@H](CCC(N)=O)C(=O)NC(C)(C)C(=O)N[C@@H](CC(=O)O)C(=O)N[C@@H](Cc1ccccc1)C(=O)N[C@H](C(=O)N[C@@H](CCC(=O)O)C(=O)N[C@@H](Cc1ccncc1)C(=O)N[C@@H](CC(C)C)C(=O)N[C@@H](CC(C)C)C(=O)N[C@@H](C)C(=O)NCC(=O)NCC(=O)N1CCC[C@H]1C(=O)N[C@@H](CO)C(=O)N[C@@H](CO)C(=O)NCC(=O)N[C@@H](C)C(=O)N1CCC[C@H]1C(=O)N1CCC[C@H]1C(=O)N1CCC[C@H]1C(=O)N[C@@H](CO)C(N)=O)C(C)C)[C@@H](C)CC

Starred links: 1 amine or outer side, 2 acyl side, 3 side chain; linkers in the order of their positions; H or OH if unused. Non-standard residues stand in square brackets, D forms with d. Groups on a side chain read outwards from the residue. No end group written: not given here. *: point of attachment. C20 diacid = O=C(O)CCCCCCCCCCCCCCCCCCC(=O)*; C18 diacid = O=C(O)CCCCCCCCCCCCCCCCC(=O)*; γGlu = O=C(O)[C@H](CCC(=O)[*:2])N[*:1]; 4Pal = N[C@@H](Cc1ccncc1)C(=O)O; αMeL = CC(C)C[C@](C)(N)C(=O)O; Orn = NCCC[C@H](N)C(=O)O; AEEA = NCCOCCOCC(=O)O; Aib = CC(C)(N)C(=O)O

One assay deals with T1, human glucose-dependent insulinotropic …. The experiment in a line: SPA, displacement of [125I]-GIP from hGIPR membranes, 0.1% bacitracin. The method, then: The binding buffer contains 25 mM HEPES, pH 7.4, 2.5 mM CaCl₂, 1 mM MgCl₂, 0.1% (w/v) bacitracin, 0.003% (w/v) TWEEN®-20, and Roche Complete™ Protease Inhibitors without EDTA. […] Plates are sealed and mixed on a plate shaker (setting 6) for 1 minute and read with a PerkinElmer Trilux MicroBeta® scintillation counter after 2.5 to 12 hours of incubation/settling time at room temperature.
(§1) Data are analyzed using four-parameter (curve maximum, curve minimum, […], Hill slope) nonlinear regression routines (Genedata Screener, version 12.0.4, Genedata AG, Basal, Switzerland). […] Values for Kᵢ are reported as the geometric mean, with error expressed as the standard error of the mean (SEM) and n is equal to the number of independent replicates (determined in assays performed on different days). Geometric Means are calculated as follows: […]
(Displacement assays read how much labelled ligand stays bound in the presence of the test substance.)
On to B1, for which the Ki – broadly, a dissociation constant, usually derived from enzyme kinetics or from competition with a known ligand – stood at 0.0841 nM.

For the molecule B2, the Ki was found to be 0.0331 nM.

For the molecule B3, the Ki was found to be 0.0828 nM.

B4 gave an inhibition constant (Ki) of 0.11 nM.

B5 displayed a Ki of 0.0473 nM.

For B6, affinity was put at a Ki of 0.0343 nM.

For the molecule B7, the inhibition constant (Ki) worked out at 0.254 nM.

The next assay has as its target T2, human GLP-1 receptor (human, UniProt P43220 24-463).
T2 construct: whole, on cells; Assayed as crude membranes of stably transfected HEK293 cells; also called hGLP1R; hGLP-1R
Put plainly: SPA, displacement of [125I]-GLP-1 from hGLP-1R membranes, 0.1% bacitracin. The protocol: The binding buffer contains 25 mM HEPES, pH 7.4, 2.5 mM CaCl₂, 1 mM MgCl₂, 0.1% (w/v) bacitracin, 0.003% (w/v) TWEEN®-20, and Roche Complete™ Protease Inhibitors without EDTA.
as §1
In the case of B4, the Ki worked out at 168 nM.

Turning to B5, the Ki was determined as 266 nM.

As for B6, the Ki turned out to be 85.2 nM.

The molecule B7 came in with a Ki of 729 nM.
